Among the data in publication PMC6346578 are binding values, retold here.

In series [1] the target is T1, SACE_5754 (TetR family regulator) (Saccharopolyspora erythraea A226?) (UniProt A4FLL4).
T1 sequence: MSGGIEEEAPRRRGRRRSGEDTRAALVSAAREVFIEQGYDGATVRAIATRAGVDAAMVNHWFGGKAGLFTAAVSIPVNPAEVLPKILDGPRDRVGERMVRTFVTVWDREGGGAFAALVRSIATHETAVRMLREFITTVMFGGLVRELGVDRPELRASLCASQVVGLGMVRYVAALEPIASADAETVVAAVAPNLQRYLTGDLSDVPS
Nature of the series: EMSA. To be noted: EMSA: 10 mM Tris pH 7.5, 5 mM MgCl2, 60 mM KCl, 10 mM DTT, 50 mM EDTA (so in the source), 10% glycerol, 30 C 10 min, 20 uL; 6% native PAGE, 1x TAE. Footprinting: …. On the technique in general: In EMSA bound probe runs differently from free probe, usually more slowly.

Series [2] has as its target T1, SACE_5754 (TetR family regulator) (Saccharopolyspora erythraea A226?). Kind of series: DNase I footprinting. The conditions noted are these: EMSA: 10 mM Tris pH 7.5, 5 mM MgCl2, 60 mM KCl, 10 mM DTT, 50 mM EDTA (so in the source), 10% glycerol, 30 C 10 min, 20 uL; 6% native PAGE, 1x TAE. Footprinting: ….

Consider “CGGACCGGAGTTCGAGGTACGCGGCTTGCAGGTCCAGGAAGGGGACGTCCATGCGAGTGTCCGTTCGAGTGGCGGCTTGCGCCCGATGCTAGTCGCGGTTGATCGGCGATCGCAGGTGCACGCGGTCGATCTTGACGGCTGGCGAGAGGTGCGGGGAGGATCTGACCGACGCGGTCCACACGTGGCACCGCGATGCTGTTGTGGGCTGGACAATCGTGCCGGTTGGTAGGATCCAGCGGTGAGCAGTTCGGACGAGCAGCCGCGCCCGCGTCGCCGCAACCAGGATCGGCAGCAC (double strand) [PeryCI-ermE]”, for which the binding result in series [1] is given as “no binding”. Consider “GGCGGGCAGGAAATCAACACTTGTTGAATTACGGTCGCGCACGCGCTCCGCGATCGCGCGGACACTTACCGCTTCGGGCGGAAATGCATTGCAAGCAAAGAAGATTGGGCCGTTCGGCGGCATCCGGGCCGAGTGGTCAAGCGCACAGAGAACTGAGTTGCCCGCGCCCGTCCGTGCGATGCATGCTTGCGTCCAGCAACTAGTTGGTTGCTGCAATCAAATCGGTTGCGCTCGCCGGGGG (double strand) [Probe 1]”, for which the binding entry in series [1] is recorded as “binds”. On the same count and under the same terms, the same measure for “TCGGCGCCTCCTCCTCGATGCCACCGCTCACACCGCCATCCTCGCTGTCGGCCGCTTCGGGGTGCAAAGCCGGGCTGCGCGCGGCACCCGCCCTGGCGGACGGCACAATTGGGGCATGGTGGGCGGCGACATCGGCAAGATCAGTC (double strand) [P5753-5754]”: “no binding”; for “CATCGTGCCCAGCCAGTCGAGGAGTGCGGTTTCGTCGGCCATGCCGGGAACTTCGTCGATGGTGGTCAACGTTCTCCTCGCGCAGCAGGTCGTTTCCACGTCGGCGAACACGCGTCGCGATCTTGAGCTTAGTCGCGCGCCGGACGGGGTGTCGAGACTTCCGCGGTGGCGGTGGGAACAGTGAGCACGGCGTCGAACGCGTCGCGCAGCGGCGTCCGCATCCACGTGCTCTGGGAGCGGATCCGGTCC (double strand) [PeryK]”: “no binding”; for “CTGTGCAGTACCTGGAGGGCGGACCCTCCGGACGCGGGTTGTTCGTCGGTGTGCGCGGATGACCCGTGCGTTCGCGTTTTCCGTTCCTGGCACAGGTGATCCGCTCCACGGGCCCTTTCCCCGCCGTGACCGGACCCTTACAGTGAGTGCGGGTCTTGATCGACAACGCCCGGCGGCAGCAAGCGGAGCCGTCGACGACACCGCAGGGAGAGTCGATGGGTGATCGGACCGGCGACCGGACGATTCCGGAATCCTCGCAGACCGCAACGCGTTTCCTGCTCGGC (double strand) [PeryBVI]”: “no binding”. Take “GGTGGCTTCTGGCGTGCTCATAACGCGTTCAGCGTATCCAGTCGGCTTCCGCCCTTGACCGGCGAGTCCCGGCAGGGCACCCTGAAGTTATTCAACATGCGTTGAAAACTTGGAGGATCGCGATGGAGCGAACGACGTGTTGC (double strand) [P6148-6149]”: the binding result in series [1] and in series [2] was “binds” in each case. For “TGCCCGAAAGGTAACCCCGCGGCGGGCAGGAAATCAACACTTGTTGAATTACGGTCGCGCACGCGCTCCGCGATCGCGCGGACACTTACCGCTTCGGGCGGAAATGCATTGCAAGCAAAGAAGATTGGGCCGTTCGGCGGCATCCGGGCCGAGTGGTCAAGCGCACAGAGAACTGAGTTGCCCGCGCCCGTCCGTGCGATGCATGCTTGCGTCCAGCAACTAGTTGGTTGCTGCAATCAAATCGGTTGCGCTCGCCGGGGG (double strand) [P0388-0389]”, the binding result in series [1] and in series [2] was “binds” throughout. With “TCACCACCTGAAACCGCCACCGTTTTCCCGGAATCCGGCCACCGGAACCGGACCGGCCGAAATGGACATTCCGCCACGGTGCCGCGGGCGCCACCCGCACGCACGTTGAATTCAACACATGTTCAACAGCGTCGGAGGCGGGGATAATCGAACCCTGAGCGCCCGCCGAGCGTTCGCCACGGCCGCCATCGTCCGCGTGAGGAACCCATGACCAAGCA (double strand) [P3599]”, the binding result in series [1] and in series [2] was “binds” each time.
